# Source: patent publication US20210401986A1
# Target: cetuximab (unconjugated anti-EGFR antibody)
# Assay: cell-based or functional assay
substance,measurement,value
"AffiniPure Donkey Anti-Human IgG, Fcγ Fragment Specific (DxHu) antibody conjugated with IRDye 700DX",percent cell death of BxPC3 cells (CellTox Green) after sequential labeling and 690 nm light at 16 J/cm^2,90%
